Molecular target: the molecule itself
Assay: X-ray crystal structure, homotetramer
Procedure: Molecular replacement was carried out using the program MOLREP from the CCCP4i-program suite with the coordinates of bovine AQP1 (PDB entry 1J4N) (SEQ ID NO: 38) as the model. Using two copies of the model in the molecular replacement search, a clear solution with a correlation coefficient and R-factor of 34.3% and 53.1% respectively was found. The crystal packing was checked using the program O (30) and there were no overlaps between molecules. Automated model building was carried out using ARP/WARP (31) and the resulting model was docked to the correct sequence using GUISIDE2. The calculated electron density map at this stage was already of very good quality. Water molecules were picked using ARP/WARP. The model was subjected to multiple rounds of refinement in REFMAC5 (29), NCSREF (29) and CNS (32) with manual rebuilding in O between each round. During refinement, NCS restraints between the two molecules in the asymmetric unit (molecule A and B) were used. […] The R-factor and Rfree are 18.1% and 20.8% respectively. The quality of the structure was checked in PROCHECK (33).

B1: SoPIP2;1, plasma membrane aquaporin of spinach (other)
chain: MSKEVSEEAQAHQHGKDYVDPPPAPFFDLGELKLWSFWRAAIAEFIATLLFLYITVATVIGHSKETVVCGSVGLLGIAWAFGGMIFVLVYCTAGISGGHINPAVTFGLFLARKVSLLRALVYMIAQCLGAICGVGLVKAFMKGPYNQFGGGANSVALGYNKGTALGAEIIGTFVLVYTVFSATDPKRSARDSHVPILAPLPIGFAVFMVHLATIPITGTGINPARSFGAAVIFNSNKVWDDQWIFWVGPFIGAAVAAAYHQYVLRAAAIKALGSFRSNPTN
notes: also called PM28A; spinach aquaporin
Does B1 bind?
Result: binds
